To fix the notation:
B1: Protein maelstrom homolog, residues 3 to 71; numbered along this chain, Q96JY0 (parent)
chain: NRKASRNAYYFFVQEKIPELRRRGLPVARVADAIPYCSSDWALLREEEKEKYAEMAREWRAAQGKDPGP

± gives the uncertainty stated by the source.

The variants in this data set derive from B1. Put plainly: abundance fitness (aPCA) (normalised: wild type 0, dead -1); higher = more abundant; growth selection in yeast, the domain comes from the species named. The settings on record: Homo sapiens.
In the case of NRKASRNAYYFFVQEKIPELRRRGLPVARVARAIPYCSSDWALLREEEKEKYAEMAREWRAAQGKDPGP [D32R], the abundance fitness was -0.596 ± 0.1.

Regarding NRKASRNAYYFFVQEKIPELRRRGLPVARVAHAIPYCSSDWALLREEEKEKYAEMAREWRAAQGKDPGP [D32H], the abundance fitness was -0.535 ± 0.37.

With NRKASRNAYYFFVQEKIPELRRRGLPVARVASAIPYCSSDWALLREEEKEKYAEMAREWRAAQGKDPGP [D32S], the abundance fitness was -0.817 ± 0.14. Then NRKASRNAYYFFVQEKIPELRRRGLPVARVAQAIPYCSSDWALLREEEKEKYAEMAREWRAAQGKDPGP [D32Q], with -0.616 ± 0.23.

NRKASRNAYYFFVQEKIPELRRRGLPVARVATAIPYCSSDWALLREEEKEKYAEMAREWRAAQGKDPGP [D32T]: the abundance fitness was -0.257 ± 0.2. Then NRKASRNAYYFFVQEKIPELRRRGLPVARVAYAIPYCSSDWALLREEEKEKYAEMAREWRAAQGKDPGP [D32Y], with -1.09 ± 0.37; and NRKASRNAYYFFVQEKIPELRRRGLPVARVAKAIPYCSSDWALLREEEKEKYAEMAREWRAAQGKDPGP [D32K], with -0.869 ± 0.24. Consider NRKASRNAYYFFVQEKIPELRRRGLPVARVAWAIPYCSSDWALLREEEKEKYAEMAREWRAAQGKDPGP [D32W], for which the abundance fitness was -1.07 ± 0.15. The result for NRKASRNAYYFFVQEKIPELRRRGLPVARVAMAIPYCSSDWALLREEEKEKYAEMAREWRAAQGKDPGP [D32M] reads -0.835 ± 0.17; that for NRKASRNAYYFFVQEKIPELRRRGLPVARVALAIPYCSSDWALLREEEKEKYAEMAREWRAAQGKDPGP [D32L], -1.05 ± 0.13; that for NRKASRNAYYFFVQEKIPELRRRGLPVARVAVAIPYCSSDWALLREEEKEKYAEMAREWRAAQGKDPGP [D32V], -0.952 ± 0.12. The result for NRKASRNAYYFFVQEKIPELRRRGLPVARVAEAIPYCSSDWALLREEEKEKYAEMAREWRAAQGKDPGP [D32E] reads -0.055 ± 0.099; that for NRKASRNAYYFFVQEKIPELRRRGLPVARVAAAIPYCSSDWALLREEEKEKYAEMAREWRAAQGKDPGP [D32A], -0.421 ± 0.076; that for NRKASRNAYYFFVQEKIPELRRRGLPVARVAPAIPYCSSDWALLREEEKEKYAEMAREWRAAQGKDPGP [D32P], -0.959 ± 0.23. The result for NRKASRNAYYFFVQEKIPELRRRGLPVARVACAIPYCSSDWALLREEEKEKYAEMAREWRAAQGKDPGP [D32C] reads -0.735 ± 0.27; that for NRKASRNAYYFFVQEKIPELRRRGLPVARVADKIPYCSSDWALLREEEKEKYAEMAREWRAAQGKDPGP [A33K], -0.714 ± 0.18; that for NRKASRNAYYFFVQEKIPELRRRGLPVARVADGIPYCSSDWALLREEEKEKYAEMAREWRAAQGKDPGP [A33G], -0.098 ± 0.06. Regarding NRKASRNAYYFFVQEKIPELRRRGLPVARVADHIPYCSSDWALLREEEKEKYAEMAREWRAAQGKDPGP [A33H], the abundance fitness is -0.279 ± 0.28. The result for NRKASRNAYYFFVQEKIPELRRRGLPVARVADEIPYCSSDWALLREEEKEKYAEMAREWRAAQGKDPGP [A33E] reads -0.725 ± 0.2; that for NRKASRNAYYFFVQEKIPELRRRGLPVARVADDIPYCSSDWALLREEEKEKYAEMAREWRAAQGKDPGP [A33D], -0.62 ± 0.28.

Take NRKASRNAYYFFVQEKIPELRRRGLPVARVADCIPYCSSDWALLREEEKEKYAEMAREWRAAQGKDPGP [A33C]: the abundance fitness is -0.599 ± 0.15. As to NRKASRNAYYFFVQEKIPELRRRGLPVARVADFIPYCSSDWALLREEEKEKYAEMAREWRAAQGKDPGP [A33F], the abundance fitness was -0.808 ± 0.22.

Turning to NRKASRNAYYFFVQEKIPELRRRGLPVALVADAIPYCSSDWALLREEEKEKYAEMAREWRAAQGKDPGP [R29L], the abundance fitness was -0.032 ± 0.056.

Regarding NRKASRNAYYFFVQEKIPELRRRGLPVASVADAIPYCSSDWALLREEEKEKYAEMAREWRAAQGKDPGP [R29S], the abundance fitness was 0.221 ± 0.14.

In the case of NRKASRNAYYFFVQEKIPELRRRGLPVAFVADAIPYCSSDWALLREEEKEKYAEMAREWRAAQGKDPGP [R29F], the abundance fitness was -0.478 ± 0.26. Regarding NRKASRNAYYFFVQEKIPELRRRGLPVANVADAIPYCSSDWALLREEEKEKYAEMAREWRAAQGKDPGP [R29N], the abundance fitness was 0.105 ± 0.11.

For NRKASRNAYYFFVQEKIPELRRRGLPVAHVADAIPYCSSDWALLREEEKEKYAEMAREWRAAQGKDPGP [R29H], the abundance fitness was -0.113 ± 0.13. For NRKASRNAYYFFVQEKIPELRRRGLPVAPVADAIPYCSSDWALLREEEKEKYAEMAREWRAAQGKDPGP [R29P], the abundance fitness was -1.09 ± 0.17. The result for NRKASRNAYYFFVQEKIPELRRRGLPVAVVADAIPYCSSDWALLREEEKEKYAEMAREWRAAQGKDPGP [R29V] reads 0.049 ± 0.062; that for NRKASRNAYYFFVQEKIPELRRRGLPVAWVADAIPYCSSDWALLREEEKEKYAEMAREWRAAQGKDPGP [R29W], -0.47 ± 0.086; that for NRKASRNAYYFFVQEKIPELRRRGLPVAYVADAIPYCSSDWALLREEEKEKYAEMAREWRAAQGKDPGP [R29Y], -0.101 ± 0.15. Then NRKASRNAYYFFVQEKIPELRRRGLPVAMVADAIPYCSSDWALLREEEKEKYAEMAREWRAAQGKDPGP [R29M], with -0.09 ± 0.09; and NRKASRNAYYFFVQEKIPELRRRGLPVAIVADAIPYCSSDWALLREEEKEKYAEMAREWRAAQGKDPGP [R29I], with 0.139 ± 0.14.

Take NRKASRNAYYFFVQEKIPELRRRGLPVADVADAIPYCSSDWALLREEEKEKYAEMAREWRAAQGKDPGP [R29D]: the abundance fitness is 0.148 ± 0.15. With NRKASRNAYYFFVQEKIPELRRRGLPVAGVADAIPYCSSDWALLREEEKEKYAEMAREWRAAQGKDPGP [R29G], the abundance fitness is 0.052 ± 0.05. The result for NRKASRNAYYFFVQEKIPELRRRGLPVAEVADAIPYCSSDWALLREEEKEKYAEMAREWRAAQGKDPGP [R29E] reads 0.275 ± 0.065; that for NRKASRNAYYFFVQEKIPELRRRGLPVAKVADAIPYCSSDWALLREEEKEKYAEMAREWRAAQGKDPGP [R29K], 0.178 ± 0.064; that for NRKASRNAYYFFVQEKIPELRRRGLPVAQVADAIPYCSSDWALLREEEKEKYAEMAREWRAAQGKDPGP [R29Q], 0.041 ± 0.075.

As to NRKASRNAYYFFVQEKIPELRRRGLPVACVADAIPYCSSDWALLREEEKEKYAEMAREWRAAQGKDPGP [R29C], the abundance fitness was 0.118 ± 0.1.
